The text below walks through data of patent US20250136702A1 (NONA BIOSCIENCES SUZHOU, published 2025).

For experiment [1], the target named is T1, human LIFR expressed on the surface of 293T cells (human, UniProt P42702 45-1097).
T1 construct: whole, on cells; also called HEK293T-huLIFR; huLIFR
T1 sequence (looked up): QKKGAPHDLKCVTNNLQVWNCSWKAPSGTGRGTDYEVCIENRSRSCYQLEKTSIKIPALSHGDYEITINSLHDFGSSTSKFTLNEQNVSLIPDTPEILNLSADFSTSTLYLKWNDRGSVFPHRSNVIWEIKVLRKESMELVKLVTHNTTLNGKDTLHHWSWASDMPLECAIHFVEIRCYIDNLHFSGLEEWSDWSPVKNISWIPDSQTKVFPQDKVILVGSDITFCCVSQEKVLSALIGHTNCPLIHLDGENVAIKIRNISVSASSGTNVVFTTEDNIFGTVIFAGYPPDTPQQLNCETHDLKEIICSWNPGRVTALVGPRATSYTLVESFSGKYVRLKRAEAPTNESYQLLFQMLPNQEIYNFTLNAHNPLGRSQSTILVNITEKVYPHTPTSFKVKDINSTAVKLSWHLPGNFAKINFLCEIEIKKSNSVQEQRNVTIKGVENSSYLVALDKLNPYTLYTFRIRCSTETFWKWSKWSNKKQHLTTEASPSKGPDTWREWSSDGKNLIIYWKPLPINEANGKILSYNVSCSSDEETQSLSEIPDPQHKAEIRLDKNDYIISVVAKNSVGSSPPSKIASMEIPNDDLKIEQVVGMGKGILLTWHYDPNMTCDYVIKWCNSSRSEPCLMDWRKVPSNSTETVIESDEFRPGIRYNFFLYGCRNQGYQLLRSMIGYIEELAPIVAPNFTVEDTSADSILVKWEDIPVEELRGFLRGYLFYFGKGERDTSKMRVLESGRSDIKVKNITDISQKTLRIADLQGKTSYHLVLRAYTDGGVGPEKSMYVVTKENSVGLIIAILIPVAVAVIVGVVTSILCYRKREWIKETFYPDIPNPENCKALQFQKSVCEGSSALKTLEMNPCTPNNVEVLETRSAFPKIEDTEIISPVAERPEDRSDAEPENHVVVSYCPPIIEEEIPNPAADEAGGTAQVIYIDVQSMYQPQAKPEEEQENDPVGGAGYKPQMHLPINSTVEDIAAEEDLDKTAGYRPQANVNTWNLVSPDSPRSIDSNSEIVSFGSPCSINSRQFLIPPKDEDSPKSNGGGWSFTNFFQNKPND
Kind of experiment: flow cytometry on HEK293T-huLIFR cells, median fluorescence, span of the fitted curve.

The target of experiment [2] is T2, human LIFR/gp130 heterodimer expressed on the surface of 293T cells (human, UniProt P42702 45-1097; P40189 23-918).
T2 construct: whole, on cells; also called HEK293T-huLIFR/gp130; huLIFR/gp130
Kind of experiment: flow cytometry on HEK293T-huLIFR/gp130 cells, median fluorescence, span of the fitted curve.

For a further experiment, the target named is T3, mouse LIFR-ECD protein (mouse, UniProt P42703 44-828).
T3 construct: extracellular domain
T3 sequence (looked up): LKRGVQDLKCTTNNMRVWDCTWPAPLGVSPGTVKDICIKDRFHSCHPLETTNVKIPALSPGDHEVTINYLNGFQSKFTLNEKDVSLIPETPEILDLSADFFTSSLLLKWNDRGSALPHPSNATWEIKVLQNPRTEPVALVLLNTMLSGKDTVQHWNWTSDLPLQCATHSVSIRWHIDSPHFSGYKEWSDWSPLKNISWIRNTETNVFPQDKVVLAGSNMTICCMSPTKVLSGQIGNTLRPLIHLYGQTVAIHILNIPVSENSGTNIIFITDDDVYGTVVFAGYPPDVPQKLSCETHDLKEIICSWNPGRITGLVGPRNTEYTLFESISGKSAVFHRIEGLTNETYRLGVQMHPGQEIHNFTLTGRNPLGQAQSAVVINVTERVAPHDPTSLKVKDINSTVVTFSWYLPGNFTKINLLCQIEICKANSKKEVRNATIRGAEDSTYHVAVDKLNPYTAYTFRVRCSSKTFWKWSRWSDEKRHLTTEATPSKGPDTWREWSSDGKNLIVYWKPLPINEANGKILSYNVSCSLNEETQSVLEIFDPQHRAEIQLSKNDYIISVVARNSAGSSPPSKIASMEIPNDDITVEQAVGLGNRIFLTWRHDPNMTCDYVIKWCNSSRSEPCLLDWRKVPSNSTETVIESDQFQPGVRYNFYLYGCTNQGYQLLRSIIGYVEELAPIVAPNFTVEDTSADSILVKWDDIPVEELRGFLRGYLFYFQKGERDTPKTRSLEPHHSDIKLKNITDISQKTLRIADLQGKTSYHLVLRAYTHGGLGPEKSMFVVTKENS
As to the kind of experiment: ELISA on plate-coated mouse LIFR-ECD (1 ug/mL), anti-human IgG Fc-HRP, OD450nm. The procedure: The binding ability of the 15 antibodies prepared in examples 1-4 of the present invention to the LIFR-ECD protein was detected based on the ELISA assay method. The binding affinity of different antibodies was determined by comparing their dose response binding curves to LIFR-ECD protein. The specific experimental process is as follows: First, human LIFR-ECD, monkey LIFR-ECD and mouse LIFR-ECD proteins are diluted to a concentration of 1 μg/mL, added to a 96-well plate (100 μL per well) and placed at 4° C. overnight. The 96-well plates were washed three times with PBST solution and then placed at 37° C. for 1 h with the addition of 2% BSA in PBS solution. Antibody seris dilution is prepared and (100 nM, 10-fold-dilution), added to a 96-well plate and incubate at 37° C. for 1 h. After washing three times with PBST solution, add anti-human IgG Fc-HRP secondary antibody (for 5000× dilution) and incubate at 37° C. for 30-60 min. After washing three times with PBST solution, add TMB color development solution for 5-15 minutes, and then add termination solution to ternimate the color development.

T2 sequence (P40189 23-918, one chain of several): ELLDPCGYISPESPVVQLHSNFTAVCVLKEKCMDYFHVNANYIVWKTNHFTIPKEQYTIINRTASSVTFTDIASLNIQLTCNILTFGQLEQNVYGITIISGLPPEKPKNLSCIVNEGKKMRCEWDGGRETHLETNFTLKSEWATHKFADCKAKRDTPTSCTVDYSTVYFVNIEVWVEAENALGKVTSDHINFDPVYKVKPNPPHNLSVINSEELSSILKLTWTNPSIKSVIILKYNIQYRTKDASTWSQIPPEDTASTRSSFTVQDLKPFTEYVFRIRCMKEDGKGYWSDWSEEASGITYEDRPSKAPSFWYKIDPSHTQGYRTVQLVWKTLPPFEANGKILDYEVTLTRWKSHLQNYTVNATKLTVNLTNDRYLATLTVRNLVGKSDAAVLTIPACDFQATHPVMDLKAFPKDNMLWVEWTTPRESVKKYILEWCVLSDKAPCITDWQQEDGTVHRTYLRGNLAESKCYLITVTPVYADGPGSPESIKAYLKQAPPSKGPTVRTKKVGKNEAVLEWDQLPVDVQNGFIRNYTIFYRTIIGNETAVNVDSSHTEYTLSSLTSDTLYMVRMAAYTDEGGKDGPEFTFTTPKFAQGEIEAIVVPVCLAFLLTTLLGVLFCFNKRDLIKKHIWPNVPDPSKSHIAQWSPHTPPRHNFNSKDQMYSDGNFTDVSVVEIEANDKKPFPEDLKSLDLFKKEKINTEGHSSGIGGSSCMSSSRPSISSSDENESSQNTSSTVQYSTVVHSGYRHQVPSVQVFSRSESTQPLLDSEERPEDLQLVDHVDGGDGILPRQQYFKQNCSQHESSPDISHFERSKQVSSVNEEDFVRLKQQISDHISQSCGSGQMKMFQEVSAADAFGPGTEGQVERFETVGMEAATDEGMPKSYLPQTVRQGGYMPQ

B1: PR300516 (antibody, human IgG1, kappa, V domains shown)
VH: QVQLVESGGGVVQPGRSLRLSCAASGFTFSSYGMHWVRQAPGKGLEWVAVIWYDGNNKYYADSVKGRFTISRDNSKNTLYLQMNSLRAEDTAVYYCARDGESSMVRGLLNWFDPWGQGTLVTVSS
VL: not shown
For the molecule B1, the Span in experiment [1] is 19800; in experiment [2] it was 6880. For the same molecule, the binding result in the experiment with mouse LIFR-ECD protein was “no binding (tested: 100 nM)”.

B2: PR301153 (antibody, IgG1, V domains shown)
VH: QGQLVESGGGVVQPGRSLRLSCAASGFTFSSYGMHWVRQPPGKGLEWVAVIWFDGSNKYYADSVKGRFTISRDNSKNTVYLQMDSLRDEDTAVYYCARGQLVGDYWGQGTLVTVSS
VL: not shown
In the case of B2, the binding result with mouse LIFR-ECD protein is listed as “no binding (tested: 100 nM)”.

B3: PR301215 (antibody, human IgG1, kappa, V domains shown)
VH: QVQLVESGGGVVQPGRSLRLSCAASGFTFSSYGMHWVRQAPGKGLEWVAVIWFDGSIKYYADSVKGRFTISRDNSKNTLYLQMNSLRAEDTAIYYCARGQLVQDFWGRGTLVTVSS
VL: DIQMTQSPSTLSASVGDRVTITCRASQSISSWLAWYQQKPGKAPNLLMYKASNLESGVPSRFSGSGSGTEFTLTITSLQPDDFASYYCQQYKSNPLTFGGGTKVEIKR
Regarding B3, the binding result with mouse LIFR-ECD protein is “no binding (tested: 100 nM)”.

B4: PR301218 (antibody, human IgG1, kappa, V domains shown)
VH: QVQLVESGGGVVQPGRSLRLSCAASGFTFSSYGMHWVRQAPGKGLEWVAVIWFDGSVKYYADSVKGRFTISRDNSKNTLYLQMNSLRAEDTAIYYCARGQLVQDFWGRGTLVTVSS
VL: DIQMTQSPSTLSASVGDRVTITCRASQSISSWLAWYQQKPGKAPNLLMYKASNLESGVPSRFSGSGSGTEFTLTITSLQPDDFASYYCQQYKSNPLTFGGGTKVEIKR
B4: the binding result in the experiment with mouse LIFR-ECD protein is recorded as “no binding (tested: 100 nM)”.

B5: PR301211 (antibody, human IgG1, kappa, V domains shown)
VH: QVQLVESGGGVVQPGRSLRLSCAASGFTFSSYGMHWVRQAPGKGLEWVAVIWFDGSLKYYADSVKGRFAISRDNSKNTLYLQMNSLRAEDTAIFYCARGQLVQDLWGRGTLVTVSS
VL: DIQMTQSPSTLSASVGDRVTITCRASQSISSWLAWYQQKPGKAPNLLMYKASNLESGVPSRFSGSGSGTEFTLTITSLQPDDFASYYCQQYKSNPLTFGGGTKVEIKR
Regarding B5, the Span turned out to be 15900 in experiment [1] and 5800 in experiment [2].

B6: PR301196 (antibody, human IgG1, kappa, V domains shown)
VH: QVQLVESGGGVVQPGRSLRLSCAASGFTFSSYGMNWVRQAPGKGLEWVAVIWFDGSIKYYADSVKGRFTISRDNSKNTLYLQMNSLRAEDTAIYYCARGQLVQDFWGRGTLVTVSS
VL: DIQMTQSPSTLSASVGDRVTITCRASQSISSWLAWYQQKPGKAPNLLMYKASNLENGVSSRFSGSGSGTEFTLTITSLQPDDFATYYCQQYKSNPLTFGGGTKVEIKR
As to B6, the binding result with mouse LIFR-ECD protein is “no binding (tested: 100 nM)”.

B7: PR301195 (antibody, human IgG1, kappa, V domains shown)
VH: QVQLVESGGGVVQPGRSLRLSCAASGFTFSSYGMNWVRQAPGKGLEWVAVIWFDGSIKYYADSVKGRFTISRDNSKNTLYLQMNSLRAEDTAIYYCARGQLVQDFWGRGTLVTVSS
VL: DIQMTQSPSTLSASVGDRVTITCRASQSISSWLAWYQQKPGKAPNLLMYKASNLESGVPSRFSGSGSGTEFTLTITSLQPDDFASYYCQQYKSNPLTFGGGTKVEIKR
For the molecule B7, the binding result with mouse LIFR-ECD protein is “no binding (tested: 100 nM)”.

B8: PR301176 (antibody, IgG1, V domains shown)
VH: QVQLVESGGGVVQPGRSLRLSCAASGFTFSSYGMDWVRQAPGKGLEWVAVIWYDGSNKFYADSVRGRFTISRDNSQNTLYLQMNSLRAEDTAVYYCARELWFGELLSPFDFWGQGTLVTVSS
VL: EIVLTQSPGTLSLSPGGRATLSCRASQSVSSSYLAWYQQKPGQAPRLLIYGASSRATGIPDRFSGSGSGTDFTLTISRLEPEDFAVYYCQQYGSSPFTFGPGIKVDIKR
B8: the binding result with mouse LIFR-ECD protein is recorded as “no binding (tested: 100 nM)”.

B9: PR301168 (antibody, IgG1, V domains shown)
VH: QVQLVESGGGVVQPGRSLRLSCAASGFTFSSYGMDWVRQAPGKGLEWVAVIWYDGSNKFYADSVRGRFTISRDNSQNTLYLQMNSLRAEDTAVYYCARELWFGELLSPLDFWGQGTLVTVSS
VL: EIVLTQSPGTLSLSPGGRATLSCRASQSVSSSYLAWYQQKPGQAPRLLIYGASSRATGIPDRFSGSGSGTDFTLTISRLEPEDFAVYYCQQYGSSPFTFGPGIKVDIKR
notes: also called PR3001168
Consider B9, for which the Span in experiment [1] stood at 19400; in experiment [2], 6950. The binding result with mouse LIFR-ECD protein is on record as “no binding (tested: 100 nM)”.

B10: PR301152 (antibody, IgG1, V domains shown)
VH: QVQLVESGGGVVQPGRSLRLSCAASGFTFSSYGMDWVRQAPGKGLEWVAVIWYDGSNKYYADSVKGRFTISRDNSKNTLYLQMNSLRAEDTAVYYCARELWFGELLSPFDFWGQGTLVTVSS
VL: KIVLTQSPGTLSLSPGGRATLSCRASQSISSSYLAWYQQKPGQAPRLLIYAASNRATGIPDRFSGSGSGTDFTLTISRLEPEDFAVYYCQQYGSSPFTFGPGIKVDIKR
B10: the Span in experiment [1] worked out at 20100; in experiment [2] it was 7210. Besides, the binding result with mouse LIFR-ECD protein is listed as “no binding (tested: 100 nM)”.

B11: PR301177 (antibody, human IgG1, kappa, V domains shown)
VH: QVQLVESGGGVVQPGRSLRLSCVASGFTFSSYGMNWVRQAPGKGLDWVTVIWFDGSNKYYADSVKGRFTISRDNSKNTLYLQMNSLRAEDTAMYYCARGERTLDLWGQGTLVTVSS
VL: DIQMTQSPSTLSASVGDRVTITCRASQSISSWLAWYQQKPGKAPKLLIYKASSLESGVPSRFSGSGSGTEFSFTISSLQPDDFATYYCQQYKSFSPGGLTFGGGTKVEIKR
As to B11, the binding result with mouse LIFR-ECD protein is reported as “no binding (tested: 100 nM)”.

B12: PR301127 (antibody, human IgG1, kappa, V domains shown)
VH: EVQLLQSGGGLVQPGGSLRLSCAASGFTFSNYAMTWVRQAPGKGLEWVSTISGSGAFTYYADAVKGRFTISRVNSKNSLDLQMNSLRAEDTAVYYCAKGGILTGFDNWGQGTLVTVSS
VL: DIQMTQSPSTLSASVGDRVTITCRASQSISSWLAWYQQKPGKAPKLLIYKASSLESGVPSRFSGSGSGTEFSFTISSLQPDDFATYYCQQYKSFSPGGLTFGGGTKVEIKR
Regarding B12, the Span in experiment [2] worked out at 55.6.
